Laboratory results as given in paper PMC3774140.

Assays:
[1] = molecular target: SKN-1 50 amino acid bait construct encoding the lax188(E237K) mutation (C. elegans); assay: two-hybrid
[2] = molecular target: SKN-1 50 amino acid bait construct encoding the lax120(S245L) mutation (C. elegans); assay: two-hybrid

percent decrease of the interaction against the wild-type 50-mer bait [1]: 72%
percent decrease of the interaction against the wild-type 50-mer bait [2]: 75%
Substance: PGAM-5 (Y2H prey from the cDNA library) (natural protein)
